Patent US20150307599A1 (GARVAN INSTITUTE OF MEDICAL RESEARCH, published 2015)
Where no end group is shown, it is not given here.

Columns and labels:
[1] = target: T1, Peptide 3p18 (NPY C terminus with similar a.a. substitutions); experiment: SPR (Biacore), FIGS. 11A and 11B
T1 construct: Poly-alanine 17-mer ending QRF-amide
T1 peptide: AAAAAAAAAAAAAAQRF-NH2
Protocol: (§1) Epitope mapping and determination of the affinity of MAb 5E12-B7 was also performed using a Biacore 2000 unit (GE Healthcare). Briefly, purified MAb 5E12-B7 was biotinylated as described above, except that the biotinylation reaction was performed at a 20:1 molar ratio of biotin:Ig. An SA-Chip (GE Healthcare) was docked into the Biacore 2000 unit and HBS-EP buffer (GE) was allowed to run over all 4 flow channels at 40 μL/min until signal had stabilized. The flow path was then switched to channel 4 only and HBS-EP containing 60 μg/mL biotinylated antibody was injected at 40 μL/min for 5 min to couple MAb 5E12-B7 to the chip via biotin-streptavidin binding. HBS-EP buffer was then run over channel 4 at 40 μL/min for over 30 min to remove all uncoupled Ig from the Biacore system then the flow path was changed to pass through all 4 flow channels. Association and dissociation of the peptides in Table 3 was measured using the Biacore Application Wizard. In each case, a baseline was established by passing HBS-EP over all 4 channels at 40 μL/min for 1 min before association was measure by injection of peptide (diluted to 1, 10, 100 or 1000 nM in HBS-EP) at 40 μL/min for 5 min. Dissociation was measured by allowing HBS-EP to pass over all 4 channels at 40 μL/min for 30 min. The kd, kₐ and KD were determined for each peptide by curve fitting using the BIAevalutation software.

[2] = target: T2, Peptide 3p17 (NPY C terminus with similar a.a. substitutions); experiment: SPR (Biacore), FIGS. 11A and 11B
T2 construct: Poly-alanine 17-mer ending QRH-amide
T2 peptide: AAAAAAAAAAAAAAQRH-NH2
Protocol: as §1

[3] = target: T3, Peptide 3p19 (NPY C terminus with similar a.a. substitutions); experiment: SPR (Biacore), FIGS. 11A and 11B
T3 construct: Poly-alanine 17-mer ending QRW-amide
T3 peptide: AAAAAAAAAAAAAAQRW-NH2
Protocol: as §1

1p27-SALRHYINLI = target: T4, 1p27-SALRHYINLI; experiment: indirect ELISA, peptide coated on the plate (20 µg/mL), MAb 5E12-B7 at 1 µg/mL, O.D. 450 nm
T4 construct: NPY residues 22-31; also called Peptide 1p27 (10 mer shifting across NPY)
T4 peptide: SALRHYINLI-NH2
Protocol: (§2) ELISA was used to map the reactivity of purified MAb 5E12-B7 against the peptides described in Table 3. Briefly, ELISA microwell plates (96-well Maxisorp, Nunc) were coated overnight at 4° C. with 50 μL of mapping peptides (Table 3) diluted to 20 μg/mL in carbonate coating buffer (CCB). Between each of the following steps, microwell plates were washed three times with PBST using a plate washer (BioTek). Coated wells were blocked with 200 μL PBS containing 5% w/v skim milk (Diploma). Blocked wells were incubated for 1 hr with 50 μL of MAb 5E12-B7 diluted to 1 μg/mL in skim milk/PBST. Wells were then incubated for 1 hr with 50 μL Peroxidase-conjugated AffiniPure F(ab)2 fragment goat anti-mouse secondary antibody (Jackson) diluted 1:5000 in skim milk/PBST. Ig binding was detected by incubation of wells with 50 μL TMB substrate (Becton Dickinson). Substrate reaction was stopped after 15 min with 50 μL 1M H₂SO₄ and O.D. 450 nm was measured.

1p20-EDMARYYSAL = target: T5, 1p20-EDMARYYSAL; experiment: as above
T5 construct: NPY residues 15-24; also called Peptide 1p20 (10 mer shifting across NPY)
T5 peptide: EDMARYYSAL-NH2
Protocol: as §2

1p25-YYSALRHYIN = target: T6, 1p25-YYSALRHYIN; experiment: as above
T6 construct: NPY residues 20-29; also called Peptide 1p25 (10 mer shifting across NPY)
T6 peptide: YYSALRHYIN-NH2
Protocol: as §2

1p22-MARYYSALRH = target: T7, 1p22-MARYYSALRH; experiment: as above
T7 construct: NPY residues 17-26; also called Peptide 1p22 (10 mer shifting across NPY)
T7 peptide: MARYYSALRH-NH2
Protocol: as §2

1p23-ARYYSALRHY = target: T8, 1p23-ARYYSALRHY; experiment: as above
T8 construct: NPY residues 18-27; also called Peptide 1p23 (10 mer shifting across NPY)
T8 peptide: ARYYSALRHY-NH2
Protocol: as §2

[4] = target: T9, Peptide 2p16 (Poly Ala with shrinking NPY C term); experiment: indirect ELISA, peptide coated at 20 ug/mL, MAb at 1 ug/mL
T9 construct: 16 alanines followed by Y-amide
T9 peptide: AAAAAAAAAAAAAAAAY-NH2
Protocol: as §2

[5] = target: T10, Peptide 2p15 (Poly Ala with shrinking NPY C term); experiment: as above
T10 construct: 15 alanines followed by RY-amide
T10 peptide: AAAAAAAAAAAAAAARY-NH2
Protocol: as §2

[6] = target: T11, Peptide 1p17 (NPY last 17 residues Alanine Scan) (C-terminal amide (-NH2)); experiment: as above
T11 construct: NPY 25-mer with alanine at NPY residue 35
Protocol: as §2

[7] = target: T12, Peptide 1p16 (NPY last 17 residues Alanine Scan) (C-terminal amide (-NH2)); experiment: as above
T12 construct: NPY 25-mer with alanine at NPY residue 34
Protocol: as §2

[8] = target: T13, Peptide 2p17 (HBY with polyAlanine C terminus) (C-terminal amide (-NH2)); experiment: as above
T13 construct: HBY with four alanine residues added to the C-terminus
T13 peptide: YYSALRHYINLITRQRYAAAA
Protocol: as §2

[9] = target: T14, Peptide 1p18 (NPY last 17 residues Alanine Scan) (C-terminal amide (-NH2)); experiment: as above
T14 construct: NPY 25-mer with alanine at NPY residue 36
Protocol: as §2

B1: MAb 5E12-B7 (antibody, V domains shown)
VH: QVQLQHPGTEVVKPGASVKLSCKASGYTFTNYWMHWVKQRPGQGLEWIGNIDPSNGGTNYNEKFKSKATLTVDKSSSTAYMQLSSLTSEDSAVYYCASFAYWGQGTLVTVSA
VL: DIQMTQSPASLSASVGETVTITCRASGNIHNYLAWYQQKQGKSPQLLVYNAKTLADGVPSRFSGSGSGTQYSLKISSLRPEDFGSYYCQHFWSPPFTFGSGTKLEIK
notes: Biotinylated for the Biacore and Octet assays; also called PYY/NPY antibody (5E12); anti-NPY/PYY antibody 5E12
B1: no binding [1]; no binding [2]; no binding [3]. B1: no binding (tested: 1 µg/mL) (1p27-SALRHYINLI); no binding (tested: 1 µg/mL) (1p20-EDMARYYSAL); no binding (tested: 1 µg/mL) (1p25-YYSALRHYIN). B1: no binding (tested: 1 µg/mL) (1p22-MARYYSALRH); no binding (tested: 1 µg/mL) (1p23-ARYYSALRHY); no binding [4]. B1: no binding [5]; no binding [6]; no binding [7]. B1: no binding [8]; no binding [9].
